Data on 41 sequences can be found in the nanobody polyreactivity screen of Harvey et al. (2022).

A short description of this series: yeast display, Sf9 membrane polyspecificity reagent, FACS + sequencing; frameworks hold sequencing errors. The method in brief:
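Using colony PCR, genes from sorted yeast display clones were amplified, then sequenced on MiSeq at 2 × 250 and filtered by CDR length. The clones had been stained with 10% biotinylated, detergent-solubilized Sf9 membrane reagent for 1 hour at 4 °C and sorted by FACS into low and high (top ~1%) gates on anti-HA and streptavidin fluorescence. Polyreactivity labels come from the gate of origin.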
Turning to “QVQLVESGGGLVQAGGSLRLSCAASGLIFYRNAMGRTRQAPGKERELVAAISASGGRTYYADSVKGRFTISRDTEKNTVYLPMNSLKPEDTAVYYCAAKSLLLSMDYWGQGTQVTVSS”, the “polyreactivity (PSR sort gate)” value was “high polyreactivity”.
Under “QVQLVESGGGLVQAGGSLRLSCAASGLIFYRYAMGTTRQAPGKERELVATISGGGRTYYADSVKGRFTISRDNAKNTVYLQMNSLKPEDTAVYYCNADRQWYSIGSWEYDYWGQGTQVTVSS” stands “high polyreactivity”; under “QVQLVESGGGLVQAGGSLRLSCAASGLIFYRYAMGWYRQAPGKERELVAAITASGGTTYYADSVKGRFTISRDNAKNTVYLQMNSLKPEDTAVYDCASPYTYWRRIGVDYDYWGQGTQVTVSS”, “high polyreactivity”.
Under “QVQLVESGGGLVQAGGSLRLSCAASGLIFYRYAMGWYRQAPGTEREMVAAITTNGARTYYADSVKGRFTISRDNAKNTVYLEMNSLKPEDTAVYYCAAYGAGKFWADHNYWGQGTQVTVSS” stands “high polyreactivity”; under “QVQLVESGGGLVQAGGSLRLSCAASGLIFYSYAMGWYRQAPGKERELVAAITGGGSTNYADSVKGRFTISRDNAKNTVYLQMNSLKPEDTAVYYCAAAFTLRKYDYWGQGTQVTVSS”, “low polyreactivity”.
Under “QVQLVESGGGLVQAGGSLRLSCAASGLIFYYYAKGWYRQAPGKEREFVAAISRSGGITRYADSVKGRFTISRDNAKITVYLQMNSLKPEDTAVYYCAADDYPLTYDDYYWGQGTQVTVSS” stands “high polyreactivity”; under “QVQLVESGGGLVQAGGSLRLSCAASGLIFYYYSMGWYRQAPGKERELVAAISGGGSTYYADSVKGRFTISRDNAKNTVYLQMNSLKPEDTAVYYCAADTRTSYYKDDYDYWGQGTQVTVSS”, “low polyreactivity”.
On to “QVQLVESGGGLVQAGGSLRLSCAASGLIFYYYTMGWYIQAPGKVRELVAAISSAGSTYYADSVKGRFTISRDNAKNTVYLQMNSLKPEDTEVYYCATRSQAQYTRYYGYRQFYYWGQGTQVTVSS”, for which the “polyreactivity (PSR sort gate)” value is “high polyreactivity”.
For the sequence “QVQLVESGGGLVQAGGSLRLSCAASGLIFYYYVKGWYRQAPGKERELVAAISVIGDSTYYADSVKGRFTISRDNAKNTVYLQMNSLKPEDTAVYYCNADPWRWDRESRYEYWGQGTQVSVSS”, the “polyreactivity (PSR sort gate)” value is recorded as “high polyreactivity”.
Regarding “QVQLVESGGGLVQAGGSLRLSCAASGLIIGVYAMGWYRQAPGKERELVAAITDGGSTYYADSVKGRFTISRDNAKNTVYLQMNSLKPEDTAVYYCNKLYTRVGFTFEYWGQGTQVTVSS”, the “polyreactivity (PSR sort gate)” value is given as “low polyreactivity”.
For “QVQLVESGGGLVQAGGSLRLSCAASGLIILPNAMGWYRQAPGKDRELVAAISSYDGSTYYADSVKGRFTISRDSAKNTVYLQMNSLKPEDTAVYYCAAGYYFQVEPDLVYIYSYEYWGQGTQVTVSS” the value was “low polyreactivity”; for “QVQLVESGGGLVQAGGSLRLSCAASGLIIRNYAMGWYRPAPGKERELVAAISYNGGSTYYADSVKGRFTISRDNAKNTVYLQMNSLKPEDTAVYYCAAYYGVGYRRYYYWGQGTQVTVSS”, “high polyreactivity”.
Consider “QVQLVESGGGLVQAGGSLRLSCAASGLIIRWNAMGWYRQAPAKERELVAAINRGGSTYYADSVKGRFTISRDNAKNTVYLQMTSLKPEDTAVYYCAVGYAHSSNRRYYYKKTHGYWGQGTQVTVSS”, for which the “polyreactivity (PSR sort gate)” value is listed as “low polyreactivity”.
Under “QVQLVESGGGLVQAGGSLRLSCAASGLIIWLYTMGWYRQAPGKERELVAAIDWSGGSTYYADSVKGRFTISRDNAKNTDYLQMNSLKPEDTAVYYCAADPEPSYRFDYCGQGTQVTVSS” stands “low polyreactivity”.
Turning to “QVQLVESGGGLVQAGGSLRLSCAASGLILPDYAMGWYRQAPGKERELVAAISQRGGSTYYADSVKGRFTISRDNAKNSVYLQMYSLKPEDTAVYYCNALFRLRAYAEMDYWGQGTQVTVSS”, the “polyreactivity (PSR sort gate)” value is listed as “high polyreactivity”.
Turning to “QVQLVESGGGLVQAGGSLRLSCAASGLILRGYAMGWYRQAPGKERELVAAISGSGGRTYYADSVKGRFTISRDNAKNTVYLQMNSLKPEDTAVYYCNKGGIREYDYWGQGTQVTVSS”, the “polyreactivity (PSR sort gate)” value was “high polyreactivity”.
Regarding “QVQLVESGGGLVQAGGSLRLSCAASGLILSSNAMGWYRQAPGKERELVAAITWDGDRTYADSVKGRFTISRDNAKNTVYLQMNSLKPEDTAVYYCAAPSYVSYDSEFGYWGQGTQVTVSS”, the “polyreactivity (PSR sort gate)” value is “low polyreactivity”.
As to “QVQLVESGGGLVQAGGSLRLSCAASGLILSSNAMGWYRQAPGKERELVATISWSGDSTYYADSVKGRFTISRDNAKNTVYLQMNSLKPEDTAVYDCNADHFQWGAGYDYWGQGTQVTVSS”, the “polyreactivity (PSR sort gate)” value is on record as “low polyreactivity”.
As for “QVQLVESGGGLVQAGGSLRLSCAASGLILYHYAMGWYRQAPGKERELVAAISRSGGRTSYADSVKGRFTISRDNAKNTVYLQMNSLKPEDTAVFYCAAEKVGTRPSRDYDYWGQGTQVTVSS”, the “polyreactivity (PSR sort gate)” value was “high polyreactivity”.
For “QVQLVESGGGLVQAGGSLRLSCAASGLIRYTYAMGWYRQAPGKERELVAAINSGGRTYYADSVKGRFTISRDNAKNTVYLQMNSLKPEYTAVYSCAADYGSRVRGFNYWGQGTQVTVSS” the value was “low polyreactivity”; for “QVQLVESGGGLVQAGGSLRLSCAASGLISESYAMGWYRQAPGKETELVAAISSGGSTYYADSVKGRFTISRDNAKNTVYLQMNSLNPEDTAVYFCNATGYKYNYGHAYYYAVDYWGQGTQVTVSS”, “low polyreactivity”; for “QVQLVESGGGLVQAGGSLRLSCAASGLISHNNAMGWYRQAPGKEREFVAAITTTGSSTYYADSVKGRFTISRDNEKNTVYLQMNSLKPEDTAVYYCAAESVPSRSEMDYWGQGTQVTVSS”, “low polyreactivity”.
Under “QVQLVESGGGLVQAGGSLRLSCAASGLISRRNAMGWYRQAPGKERELVAAISTGSSTNYADSVKGRFTISRDNAKNTVYLQMNSLKPEDTAVYYCAATQYWWSTLGIRDDYWGQGTQVTVSS” stands “low polyreactivity”; under “QVQLVESGGGLVQAGGSLRLSCAASGLIVQVYDMGWYRQAPGKEMELVAAISSGSNTNYADSVKGRFTISRDNAKNTVYLLMNSLKPEDTAVYYCAASWGYGALTPDMGYWGQGTQVTVSA”, “low polyreactivity”.
As for “QVQLVESGGGLVQAGGSLRLSCAASGLIYTPYAMGWYRQAPGKERELVAAINYGGSRTYYADSVKGRFTISRDNAKNTVYLQMNSLKQEDTAVYYCNKPGNYVWRRSWDFDYWGQGTQVTVSW”, the “polyreactivity (PSR sort gate)” value is given as “high polyreactivity”.
For “QVQLVESGGGLVQAGGSLRLSCAASGLNFGRNAIGWYRQAPGKERELVAAISLSGGRTSYADSVKGRFTISRDNEQNTVYLQMNSVKPEDTAFYFCASRSDVYTHDYWGQGTQVTVSS” the value was “high polyreactivity”; for “QVQLVESGGGLVQAGGSLRLSCAASGLNFSYYVMGWYRQAPGKERELVATITYSGGSTYYADSVKGRFTISRDNAKNTVYLQMNSLKPEDTAVYYFNADTGYVYSEYEYWGQGTQVTVSS”, “high polyreactivity”.
Under “QVQLVESGGGLVQAGGSLRLSCAASGLPFYQYAMGWYRQAPGKERELVAGISSGGSTKYADSVKGRFTISRDNAKNTVYFQMNSLKPEDTAVYYCAARFYAFRKGYYYWGQGTQVTVSS” stands “high polyreactivity”; under “QVQLVESGGGLVQAGGSLRLSCAASGLSFLYAMGWYRHAPGKERELVAAISNGGSTYYADSVKGRFTISRDNAKNTDYLQMNSLKPEDTAVYYCAAAVTGSYASDYWGQGTQVTVSS”, “high polyreactivity”; under “QVQLVESGGGLVQAGGSLRLSCAASGLSFSVYAMGWSRQAPGTERELVASIDLSGGNTYYADSVKGRFTISRDNAKNTVYLQMNSLKPEDTAVYYCAKYNPYYYSFSVWDGGDYWGQGTQVTVSS”, “low polyreactivity”.
In the case of “QVQLVESGGGLVQAGGSLRLSCAASGLSFSVYAMGWYRQAPGKERELVAAITRNGGSTYYADSVKGRFTISRDTAKNTVYLQMNSLKPEDSAVYYCAAVASSKLYDYWGQGTQVTVSS”, the “polyreactivity (PSR sort gate)” value is “low polyreactivity”.
Turning to “QVQLVESGGGLVQAGGSLRLSCAASGLSFTFGYAMGWYRQAPGKERELVASISSSGGNTYYADSVKGRFTISRDNAKNTVYLQMNSLKPEDTAVYYCAVYSHRRNMNYWGQGTQVTVSS”, the “polyreactivity (PSR sort gate)” value is recorded as “high polyreactivity”.
Under “QVQLVESGGGLVQAGGSLRLSCAASGLTFAWNDMGWYRQAPGKERELVAAISIIGTTYYADSVKGRFTISRDNAKNTVYLQMNSLKREDTAVYYCAKTGFLGLRQYGYWGQGTQVTVSS” stands “high polyreactivity”; under “QVQLVESGGGLVQAGGSLRLSCAASGLTFAWYAMGWYRPAPGKERELVATITSGGSTNYADSVKGRFTISRDNAKNTVYLQMNSLKPEDTAVYYCNADYIYYGTTYEYWGQGTQVTVSS”, “low polyreactivity”.
Turning to “QVQLVESGGGLVQAGGSLRLSCAASGLTFAWYTMGWYRQAPGKERELVADIDQSGSTYYADSVKGRFTISRDNAKNTVYLQMNSLKPEDTAVYYCNAYWSNFLYPFDYWGQGTQVTVSS”, the “polyreactivity (PSR sort gate)” value is given as “high polyreactivity”.
For “QVQLVESGGGLVQAGGSLRLSCAASGLTFAYYGMGWYRQAPGKEMELVAAITSSGGSTYYADSVKGRFTISRDNAKNTVYLQMNSLKPEDTAVYYCAAFVRQYGFDYWGQGTQVTVSS” the value was “low polyreactivity”.
With “QVQLVESGGGLVQAGGSLRLSCAASGLTFCPNAMGWYRQAPGKEREFVASISISGRTYYADSVKGRFTISRDNAKNTVYLLMNSLKPEDTAVYYCAARYVRSGLYRKYDYWGQGTQVTVSS”, the “polyreactivity (PSR sort gate)” value is reported as “high polyreactivity”.
For “QVQLVESGGGLVQAGGSLRLSCAASGLTFDANAMGWYIQAPGKEREFVAVISWSDGGTYYADSVKGRFTISRDNAKNTVYLQLNSLKPEDTAVYYCNADFYYVYGNTRRYRYFEMEYWGQGTQVTVSS”, the “polyreactivity (PSR sort gate)” value was “low polyreactivity”.
Under “QVQLVESGGGLVQAGGSLRLSCAASGLTFDAYAMGWYRQAPGKERELVAAISSGGNSYYADSVKGRFTISRDNAKNTVYLQMNSLKPEDTAVYYCNAVGYYKYFFLAYEYDYWGQGTQVTVSS” stands “low polyreactivity”.
Take “QVQLVESGGGLVQAGGSLRLSCAASGLTFDAYAMGWYRQAPGKERELVAAISSGGNTYYADSVKGRFTISRDNAKNTVYLQMNSLKPEDTAVYYCNAVGYYKYFVLAYEYDYWGQGTQVTVSS”: the “polyreactivity (PSR sort gate)” value is on record as “low polyreactivity”.
Under “QVQLVESGGGLVQAGGSLRLSCAASGLTFDGNTMGWYRQAPGKERELVAAISFDGGNTYADSVKGRFRISRDNAKNTVYLQMNSLKPEDTAVYYCNASYEYNAGRVETEYDYWGQGTQVTVSS” stands “low polyreactivity”.
